The assay has as its target T1, 血清标本中的AFP抗原 (UniProt P02771 19-609).
T1 construct: also called 质控血清AFP; 标准血清中的AFP
T1 sequence (looked up): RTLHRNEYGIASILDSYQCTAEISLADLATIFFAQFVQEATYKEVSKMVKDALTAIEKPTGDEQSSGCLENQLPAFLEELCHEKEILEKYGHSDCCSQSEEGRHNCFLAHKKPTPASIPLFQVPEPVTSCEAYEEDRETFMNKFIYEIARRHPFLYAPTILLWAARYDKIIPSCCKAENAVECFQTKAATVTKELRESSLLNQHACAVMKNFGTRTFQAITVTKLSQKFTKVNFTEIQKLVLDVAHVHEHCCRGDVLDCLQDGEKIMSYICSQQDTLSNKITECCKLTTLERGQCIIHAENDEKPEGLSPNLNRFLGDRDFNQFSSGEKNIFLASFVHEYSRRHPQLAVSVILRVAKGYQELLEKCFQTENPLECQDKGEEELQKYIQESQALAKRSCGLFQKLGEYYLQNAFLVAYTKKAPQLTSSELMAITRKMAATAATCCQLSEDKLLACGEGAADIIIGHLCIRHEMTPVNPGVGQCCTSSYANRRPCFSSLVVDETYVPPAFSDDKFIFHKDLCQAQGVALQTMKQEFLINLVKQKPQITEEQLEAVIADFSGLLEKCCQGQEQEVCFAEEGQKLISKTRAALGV
Description: double-antibody sandwich chemiluminescent immunoassay, detection antibody.

B1: 带有化学发光区序列的纳米抗体1C5-HAP (other)
chain: QVQLQESGGGLVQAGGSLRLSCKASERTFSSYSMAWYRQAPGKKREFVASISWDDERTYYTDSVKGRFTISRPNAKNTVYLQMNSLKPEDTAVYYCAVGGLSDGLGPSYDYWGQGTQVTVSSGGGGSGGGGSGGGGSIIPVEEENPDFWNREAAEALGAAKKLQPAQTAAKNLIIFLGDGMGVSTVTAARILKGQKKDKLGPEIPLAMDRFPYVALSKTYNVDKHVPDSGATATAYLCGVKGNFQTIGLSAAARFNQCNTTRGNEVISVMNRAKKAGKSVGVVTTTRVQHASPAGTYAHTVNRNWYSDADVPASARQEGCQDIATQLISNMDIDVILGGGRKYMFRMGTPDPEYPDDYSQGGTRLDGKNLVQEWLAKRQGARYVWNRTELMQASLDPSVTHLMGLFEPGDMKYEIHRDSTLDPSLMEMTEAALRLLSRNPRGFFLFVEGGRIDHGHHESRAYRALTETIMFDDAIERAGQLTSEEDTLSLVTADHSHVFSFGGYPLRGSSIFGLAPGKARDRKAYTVLLYGNGPGYVLKDGARPDVTESESGSPEYRQQSAVPLDEETHAGEDVAVFARGPQAHLVHGVQEQTFIAHVMAFAACLEPYTACDLAPPAGTTD
notes: Expressed in 293 cells
Take B1: the binding result is recorded as “binds”.

The values are drawn from patent CN113234166A (SHENZHEN INNOVA NANOBODI CO LTD, dated 2021).
